Results published in US20030068675, “Position dependent recognition of GNN nucleotide triplets by zinc fingers” (published 2003).
Where a chain is given by its changes, count along the chain named.

Legend:
Test in all cases: EMSA
Conditions in all cases: tags: MBP fusion
ZFP SBS#1469 = molecular target: T1, ZFP SBS#1469 (synthetic)
T1 chain: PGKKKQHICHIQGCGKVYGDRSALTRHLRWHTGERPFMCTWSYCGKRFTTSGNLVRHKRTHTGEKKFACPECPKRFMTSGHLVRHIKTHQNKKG
Method in brief: (§1)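 Purified ZFP was titrated against labeled double-stranded target (1 nM or lower, at least 10-fold below expected Kd) carrying the natural binding site with flanks. Binding buffer was 10 mM Tris pH 7.5, 100 mM KCl, 1 mM MgCl2, 0.1 mM ZnCl2, 5 mM DTT, 10% glycerol, 0.02% BSA, with equilibration for at least 45 min. Bound and free target were separated on a 10% polyacrylamide gel.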

ZFP SBS#1470 = molecular target: T2, ZFP SBS#1470 (synthetic)
T2 chain: T1 chain with T78Q, S79R, G80A, V83E
Method in brief: as §1

ZFP SBS#1468 = molecular target: T3, ZFP SBS#1468 (synthetic)
T3 chain: T1 chain with T78M, G80H, V83S
Method in brief: as §1

ZFP SBS#1466 = molecular target: T4, ZFP SBS#1466 (synthetic)
T4 chain: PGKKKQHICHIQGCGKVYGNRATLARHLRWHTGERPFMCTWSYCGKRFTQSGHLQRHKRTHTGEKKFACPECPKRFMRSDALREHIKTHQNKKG
Method in brief: as §1

ZFP SBS#1465 = molecular target: T5, ZFP SBS#1465 (synthetic)
T5 chain: T4 chain with N20T, R21T, A22S, T23A, A25T
Method in brief: as §1

ZFP SBS#1481 = molecular target: T6, ZFP SBS#1481 (synthetic)
T6 chain: T4 chain with R21K, A22T, T23D, A25G, R26K, Q50T, G52D, Q55A, R56S, A81E
Method in brief: as §1

ZFP SBS#1479 = molecular target: T7, ZFP SBS#1479 (synthetic)
T7 chain: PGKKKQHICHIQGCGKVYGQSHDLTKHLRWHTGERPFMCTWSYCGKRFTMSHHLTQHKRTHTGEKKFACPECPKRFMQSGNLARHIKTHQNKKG
Method in brief: as §1

ZFP SBS#1480 = molecular target: T8, ZFP SBS#1480 (synthetic)
T8 chain: T7 chain with Q20N, S21K, H22T, T25G, M50T, H52G, T55V
Method in brief: as §1

ZFP SBS#1485 = ZFP SBS#1485 (synthetic)
Method in brief: as §1

ZFP SBS#1463 = ZFP SBS#1463 (synthetic)
Method in brief: as §1

ZFP SBS#1442 = molecular target: T9, ZFP SBS#1442 (synthetic)
T9 chain: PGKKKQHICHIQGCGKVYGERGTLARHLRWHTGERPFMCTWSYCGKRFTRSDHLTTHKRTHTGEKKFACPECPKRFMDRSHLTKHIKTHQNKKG
Method in brief: as §1

ZFP SBS#1462 = ZFP SBS#1462 (synthetic)
Chain of ZFP SBS#1462 (synthetic) (chain, as listed by the source): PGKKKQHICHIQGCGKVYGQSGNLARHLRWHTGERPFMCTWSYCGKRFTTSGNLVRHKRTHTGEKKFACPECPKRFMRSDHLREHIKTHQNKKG
Method in brief: as §1

ZFP SBS#1455 = ZFP SBS#1455 (synthetic)
Chain of ZFP SBS#1455 (synthetic) (chain, as listed by the source): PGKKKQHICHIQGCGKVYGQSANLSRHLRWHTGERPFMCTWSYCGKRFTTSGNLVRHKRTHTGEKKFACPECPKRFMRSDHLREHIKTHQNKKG
Method in brief: as §1

ZFP SBS#1477 = molecular target: T10, ZFP SBS#1477 (synthetic)
T10 chain: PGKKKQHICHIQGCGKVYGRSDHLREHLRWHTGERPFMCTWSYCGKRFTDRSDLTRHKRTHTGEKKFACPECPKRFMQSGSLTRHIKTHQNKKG
Method in brief: as §1

ZFP SBS#1454 = ZFP SBS#1454 (synthetic)
Method in brief: as §1

ZFP SBS#1456 = ZFP SBS#1456 (synthetic)
Chain of ZFP SBS#1456 (synthetic) (chain, as listed by the source): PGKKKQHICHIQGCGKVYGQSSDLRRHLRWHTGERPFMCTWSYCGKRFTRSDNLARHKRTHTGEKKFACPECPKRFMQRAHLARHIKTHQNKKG
Method in brief: as §1

ZFP SBS#1475 = molecular target: T11, ZFP SBS#1475 (synthetic)
T11 chain: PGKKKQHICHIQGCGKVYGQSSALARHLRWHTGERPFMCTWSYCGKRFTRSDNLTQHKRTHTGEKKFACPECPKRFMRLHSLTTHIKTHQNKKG
Method in brief: as §1

ZFP SBS#1472 = molecular target: T12, ZFP SBS#1472 (synthetic)
T12 chain: T11 chain with Q20T, S21T, A25T, L79A, H80D, S81A, T83M, T84V
Method in brief: as §1

ZFP SBS#1476 = molecular target: T13, ZFP SBS#1476 (synthetic)
T13 chain: T11 chain with L79S, H80D
Method in brief: as §1

ZFP SBS#1474 = molecular target: T14, ZFP SBS#1474 (synthetic)
T14 chain: T11 chain with L79A, H80D, S81A, T83M, T84V
Method in brief: as §1

ZFP SBS#1473 = molecular target: T15, ZFP SBS#1473 (synthetic)
T15 chain: T11 chain with Q20T, S21T, A25T, L79S, H80D
Method in brief: as §1

ZFP SBS#1487 = molecular target: T16, ZFP SBS#1487 (synthetic)
T16 chain: T11 chain with Q20T, S21T, A25T
Method in brief: as §1

ZFP SBS#1484 = ZFP SBS#1484 (synthetic)
Chain of ZFP SBS#1484 (synthetic) (chain, as listed by the source): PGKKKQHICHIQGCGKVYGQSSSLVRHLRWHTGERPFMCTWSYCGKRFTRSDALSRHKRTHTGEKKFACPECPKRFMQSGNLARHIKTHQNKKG
Method in brief: as §1

ZFP SBS#1483 = molecular target: T17, ZFP SBS#1483 (synthetic)
T17 chain: T4 chain with N20D, A22S, T23N, A25T, Q50M, G52H, Q55T, R56T, A81E
Method in brief: as §1

ZFP SBS#1482 = molecular target: T18, ZFP SBS#1482 (synthetic)
T18 chain: T4 chain with N20D, A22S, T23N, A25T, Q50T, G52D, Q55A, R56S, A81E
Method in brief: as §1

ZFP SBS#1471 = molecular target: T19, ZFP SBS#1471 (synthetic)
T19 chain: T4 chain with N20R, R21S, A22D, T23H, A25S, G52S, H53A, Q55T
Method in brief: as §1

ZFP SBS#1490 = molecular target: T20, ZFP SBS#1490 (synthetic)
T20 chain: T4 chain with N20R, R21S, A22D, T23H, A25S, Q50T, H53S, Q55T
Method in brief: as §1

ZFP SBS#1464 = molecular target: T21, ZFP SBS#1464 (synthetic)
T21 chain: T9 chain with E20R, R21S, G22D, T23N, H53N, T56R, H81N, K84R
Method in brief: as §1

ZFP SBS#1461 = molecular target: T22, ZFP SBS#1461 (synthetic)
T22 chain: T9 chain with E20R, R21S, G22A, T23N, H53N, T56R, H81N, K84R
Method in brief: as §1

ZFP SBS#1445 = molecular target: T23, ZFP SBS#1445 (synthetic)
T23 chain: T11 chain with S22G, A23N, S51L, Q56A, L79S, S81H
Method in brief: as §1

ZFP SBS#1443 = ZFP SBS#1443 (synthetic)
Method in brief: as §1

ZFP SBS#1446 = ZFP SBS#1446 (synthetic)
Chain of ZFP SBS#1446 (synthetic) (chain, as listed by the source): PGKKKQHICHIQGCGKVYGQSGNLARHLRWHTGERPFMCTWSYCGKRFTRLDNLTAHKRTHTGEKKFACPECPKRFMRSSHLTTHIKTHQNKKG
Method in brief: as §1

ZFP SBS#1444 = ZFP SBS#1444 (synthetic)
Chain of ZFP SBS#1444 (synthetic) (chain, as listed by the source): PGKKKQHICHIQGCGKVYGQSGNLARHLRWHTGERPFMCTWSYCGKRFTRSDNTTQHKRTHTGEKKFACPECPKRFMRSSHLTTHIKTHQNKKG
Method in brief: as §1

ZFP SBS#1491 = molecular target: T24, ZFP SBS#1491 (synthetic)
T24 chain: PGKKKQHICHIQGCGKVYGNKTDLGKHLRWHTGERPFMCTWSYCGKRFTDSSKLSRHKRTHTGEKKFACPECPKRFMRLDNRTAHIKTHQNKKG
Method in brief: as §1

ZFP SBS#1261 = ZFP SBS#1261 (synthetic)
Method in brief: as §1

ZFP SBS#558 = ZFP SBS#558 (synthetic)
Chain of ZFP SBS#558 (synthetic) (chain, as listed by the source): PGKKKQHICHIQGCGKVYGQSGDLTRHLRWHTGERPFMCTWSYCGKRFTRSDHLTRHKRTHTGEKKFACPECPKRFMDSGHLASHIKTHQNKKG
Method in brief: as §1

ZFP SBS#1263 = ZFP SBS#1263 (synthetic)
Method in brief: as §1

ZFP SBS#1262 = ZFP SBS#1262 (synthetic)
Chain of ZFP SBS#1262 (synthetic) (chain, as listed by the source): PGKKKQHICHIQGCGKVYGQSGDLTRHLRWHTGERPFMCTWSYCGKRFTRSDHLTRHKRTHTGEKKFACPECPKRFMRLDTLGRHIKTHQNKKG
Method in brief: as §1

B1: GGTGATGTC (dsDNA)
DNA 1: GGTGATGTC
DNA 2: GACATCACC
ZFP SBS#1469
  Kd: 0.28 nM
ZFP SBS#1470
  Kd: 0.156 nM
ZFP SBS#1468
  Kd: 0.08 nM

B2: CTGGGAGTT (dsDNA)
DNA 1: CTGGGAGTT
DNA 2: AACTCCCAG
ZFP SBS#1466
  Kd: 0.017 nM
ZFP SBS#1465
  Kd: 0.018 nM

B3: GAAAGTTCA (dsDNA)
DNA 1: GAAAGTTCA
DNA 2: TGAACTTTC
ZFP SBS#1481
  Kd: 37 nM
ZFP SBS#1479
  Kd: 37 nM
ZFP SBS#1480
  Kd: 62.5 nM

B4: AAGTGAGCT (dsDNA)
DNA 1: AAGTGAGCT
DNA 2: AGCTCACTT
ZFP SBS#1485
  Kd: 1.54 nM

B5: GAGGCTGTT (dsDNA)
DNA 1: GAGGCTGTT
DNA 2: AACAGCCTC
ZFP SBS#1463
  Kd: 0.003 nM

B6: TGCTGGGCC (dsDNA)
DNA 1: TGCTGGGCC
DNA 2: GGCCCAGCA
ZFP SBS#1442
  Kd: 0.36 nM

B7: CGGGATGAA (dsDNA)
DNA 1: CGGGATGAA
DNA 2: TTCATCCCG
ZFP SBS#1462
  Kd: 0.05 nM
ZFP SBS#1455
  Kd: 0.043 nM

B8: GCAGCCCGG (dsDNA)
DNA 1: GCAGCCCGG
DNA 2: CCGGGCTGC
ZFP SBS#1477
  Kd: 2.31 nM

B9: GGAGAGGCT (dsDNA)
DNA 1: GGAGAGGCT
DNA 2: AGCCTCTCC
ZFP SBS#1454
  Kd: 0.01 nM
ZFP SBS#1456
  Kd: 0.016 nM

B10: TTGAAGGTT (dsDNA)
DNA 1: TTGAAGGTT
DNA 2: AACCTTCAA
ZFP SBS#1475
  Kd: 0.39 nM
ZFP SBS#1472
  Kd: 3.22 nM
ZFP SBS#1476
  Kd: 0.305 nM
ZFP SBS#1474
  Kd: 1.39 nM
ZFP SBS#1473
  Kd: 0.47 nM
ZFP SBS#1487
  Kd: 0.188 nM

B11: GAAGTGGTA (dsDNA)
DNA 1: GAAGTGGTA
DNA 2: TACCACTTC
ZFP SBS#1484
  Kd: 0.01 nM

B12: CCGTGTGAC (dsDNA)
DNA 1: CCGTGTGAC
DNA 2: GTCACACGG
ZFP SBS#1483
  Kd: 20.8 nM
ZFP SBS#1482
  Kd: 111 nM

B13: CTGGTTGGG (dsDNA)
DNA 1: CTGGTTGGG
DNA 2: CCCAACCAG
ZFP SBS#1471
  Kd: 0.09 nM
ZFP SBS#1490
  Kd: 0.04 nM

B14: GACGAGGAG (dsDNA)
DNA 1: GACGAGGAG
DNA 2: CTCCTCGTC
ZFP SBS#1464
  Kd: 0.002 nM
ZFP SBS#1461
  Kd: 0.014 nM

B15: TGGAAGGAA (dsDNA)
DNA 1: TGGAAGGAA
DNA 2: TTCCTTCCA
ZFP SBS#1445
  Kd: 0.182 nM
ZFP SBS#1443
  Kd: 0.22 nM
ZFP SBS#1446
  Kd: 0.42 nM
ZFP SBS#1444
  Kd: 0.09 nM

B16: AAGGGTTCA (dsDNA)
DNA 1: AAGGGTTCA
DNA 2: TGAACCCTT
ZFP SBS#1491
  Kd: 4.12 nM

B17: TGCGGGGCA (dsDNA)
DNA 1: TGCGGGGCA
DNA 2: TGCCCCGCA
ZFP SBS#1261
  Kd: 0.2 nM
ZFP SBS#558
  Kd: 21 nM
ZFP SBS#1263
  Kd: 21 nM
ZFP SBS#1262
  Kd: 3 nM
